Experimental data published in PMC7037199 (International Journal of Molecular Sciences, 2020).
“And” between values parts separate entries of the source, which are not always exact repeats. Equal entries are not always repeated.

Tests used:
[1] = biological target: amyloid-β in whole brain lysates of Tg2576 mice (human); assay: non-reducing Tris-Tricine SDS-PAGE with Western blot (SDS-stable bands); whole brain lysates of Tg2576 mice prepared with or without 100 μM TPEN; blots with anti-Aβ (6E10) or anti-apoE; no dithiothreitol or β-mercaptoethanol
[2] = biological target: the molecule itself; assay: as above

| stoichiometry N [1] | Molecule | stoichiometry N [2] |
| --- | --- | --- |
| 4 and 3 | amyloid-β in whole brain lysates of Tg2576 mice (peptide) | – |
| – | apolipoprotein E in whole brain lysates of Tg2576 mice (natural protein, mouse (endogenous in Tg2576 mouse brain), UniProt P08226 19-311, looked up, Apolipoprotein E endogenous in mouse brain; also called apoE; apoE monomers; source: endogenous, Tg2576 mouse brain lysate) EGEPEVTDQLEWQSNQPWEQALNRFWDYLRWVQTLSDQVQEELQSSQVTQELTALMEDTMTEVKAYKKELEEQLGPVAEETRARLGKEVQAAQARLGADMEDLRNRLGQYRNEVHTMLGQSTEEIRARLSTHLRKMRKRLMRDAEDLQKRLAVYKAGAREGAERGVSAIRERLGPLVEQGRQRTANLGAGAAQPLRDRAQAFGDRIRGRLEEVGNQARDRLEEVREHMEEVRSKMEEQTQQIRLQAEIFQARLKGWFEPIVEDMHRQWANLMEKIQASVATNPIITPVAQENQ | 2 |
